Results published in patent publication US20160090422A1 (Genentech, published 2016).
Residue numbers refer to the chain shown, from its start.

Columns and labels:
[1] = molecular target: T1, rhesus monkey CRTh2 (rhesus monkey, UniProt Q9Y5Y4 1-395 (human entry)); assay: flow cytometry, 293 cells expressing amino-terminal gD-tagged rhesus CRTh2; antibody at 10, 1 and 0.1 ug/ml
T1 construct: also native on primary rhesus basophils and eosinophils; also called rhesus CRTh2
T1 chain: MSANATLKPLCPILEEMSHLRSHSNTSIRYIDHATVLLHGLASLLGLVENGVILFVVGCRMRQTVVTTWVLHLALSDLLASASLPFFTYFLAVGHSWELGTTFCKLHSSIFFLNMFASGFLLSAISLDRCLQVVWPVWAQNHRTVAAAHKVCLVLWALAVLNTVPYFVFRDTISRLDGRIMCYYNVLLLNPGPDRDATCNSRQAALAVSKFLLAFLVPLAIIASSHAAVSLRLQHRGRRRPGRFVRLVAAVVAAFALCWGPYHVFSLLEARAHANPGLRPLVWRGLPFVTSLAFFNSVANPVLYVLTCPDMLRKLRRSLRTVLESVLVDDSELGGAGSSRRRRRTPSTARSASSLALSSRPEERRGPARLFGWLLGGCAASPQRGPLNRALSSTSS

[2] = molecular target: T2, cynomolgus monkey CRTh2 (cynomolgus monkey, UniProt Q9Y5Y4 1-395 (human entry)); assay: radioligand cell binding assay (Scatchard), Fab, 293 cells expressing cynomolgus monkey CRTh2
T2 construct: also native on primary cyno basophils and eosinophils; also called cyno CRTh2; cynomologous CRTh2
T2 chain: T1 chain with P193S, P276R, R360H
Method: (§1) After the 2-hour incubation, the competition reactions were transferred to a Millipore Multiscreen filter plate and washed 4 times with binding buffer to separate the free from bound iodinated antibody. The filters were counted on a Wallac Wizard 1470 gamma counter. The binding data was evaluated using NewLigand software (Genentech), which uses the fitting algorithm of Munson and Rodbard to determine the binding affinity of the anti-CRTh2 antibody (Munson and Rodbard, Anal. Biochem, 1980; 107: 220-239).
(§2) To obtain a direct measurement of the KD value of humanized antibodies h19A2.v12 and h19A2.v60, Fab fragments of these antibodies were generated and subjected to radioligand cell binding assays (FIG. 4B).
(§3) Radiolabeled ligand analysis with homologous competition was performed to assess the dissociation constant (KD) of anti-CRTh2 antibodies to surface expressed human and cynomolgus monkey CRTh2 on 293 cells. To obtain a direct measurement of the KD value of humanized antibodies h19A2.v52 and h19A2.v46, Fab fragments of these antibodies were generated (FIG. 16).

[3] = molecular target: T3, human CRTh2 (human, UniProt Q9Y5Y4 1-395); assay: radioligand cell binding assay (Scatchard), Fab, 293 cells expressing human CRTh2
T3 construct: also native CRTh2 on primary human basophils, eosinophils and Th2 cells; also called hCRTh2; chemoattractant receptor-homologous molecule expressed on T helper 2 cells
T3 sequence: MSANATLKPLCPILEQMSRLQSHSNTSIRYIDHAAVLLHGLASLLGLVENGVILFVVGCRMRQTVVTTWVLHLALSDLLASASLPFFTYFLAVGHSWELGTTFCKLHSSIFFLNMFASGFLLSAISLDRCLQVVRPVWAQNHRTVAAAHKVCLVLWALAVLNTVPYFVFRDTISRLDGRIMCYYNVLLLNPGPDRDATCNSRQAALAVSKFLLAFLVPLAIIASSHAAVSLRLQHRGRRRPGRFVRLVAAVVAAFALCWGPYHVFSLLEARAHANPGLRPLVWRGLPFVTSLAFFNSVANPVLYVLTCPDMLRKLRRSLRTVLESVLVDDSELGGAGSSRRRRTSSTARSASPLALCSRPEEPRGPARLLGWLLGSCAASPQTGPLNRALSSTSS
Method: as §1, with “The equilibrium dissociation constants (KD) for anti-CRTH2 antibodies binding to cells expressing recombinant CRTh2 receptor were determined using a radioligand cell binding assay. […] The cells expressing the CRTh2 receptor were incubated for 2 hours at room temperature with a fixed concentration of iodinated anti-CRTh2 antibody combined with increasing concentrations of unlabeled anti-CRTh2 antibody and including a zero-added, buffer only sample. After” for “After”
as §2

[4] = molecular target: T3, human CRTh2; assay: flow cytometry, 293 cells expressing amino-terminal gD-tagged human CRTh2; antibody at 10, 1 and 0.1 ug/ml
[5] = molecular target: T1, rhesus monkey CRTh2; assay: flow cytometry, 293 cells expressing rhesus CRTh2; antibody at 0.55, 0.18, 0.06, 0.02 and 0.006 ug/ml [Cont.]
[6] = molecular target: T2, cynomolgus monkey CRTh2; assay: ratio of Scatchard KD values, cyno against human CRTh2 on 293 cells
Method: The filters were counted on a Wallac Wizard 1470 gamma counter. The binding data was evaluated using NewLigand software (Genentech), which uses the fitting algorithm of Munson and Rodbard to determine the binding affinity of the anti-CRTh2 antibody (Munson and Rodbard, Anal. Biochem, 1980; 107: 220-239).
as §2, §3

[7] = molecular target: T1, rhesus monkey CRTh2; assay: flow cytometry, 293 cells expressing rhesus CRTh2 [Cont.]
[8] = molecular target: T2, cynomolgus monkey CRTh2; assay: flow cytometry, 293 cells expressing cynomolgus CRTh2 [Cont.]
[9] = molecular target: T3, human CRTh2; assay: radioligand cell binding assay with homologous competition (Scatchard), 293 cells expressing human CRTh2
Method: as §1, with “The equilibrium dissociation constants (KD) for anti-CRTH2 antibodies binding to cells expressing recombinant CRTh2 receptor were determined using a radioligand cell binding assay. […] The cells expressing the CRTh2 receptor were incubated for 2 hours at room temperature with a fixed concentration of iodinated anti-CRTh2 antibody combined with increasing concentrations of unlabeled anti-CRTh2 antibody and including a zero-added, buffer only sample. After” for “After”
as §2

[10] = molecular target: T3, human CRTh2; assay: radioligand cell binding assay with homologous competition (Scatchard), 300.19 cells expressing human CRTh2
Method: as §1, with “The equilibrium dissociation constants (KD) for anti-CRTH2 antibodies binding to cells expressing recombinant CRTh2 receptor were determined using a radioligand cell binding assay. […] The cells expressing the CRTh2 receptor were incubated for 2 hours at room temperature with a fixed concentration of iodinated anti-CRTh2 antibody combined with increasing concentrations of unlabeled anti-CRTh2 antibody and including a zero-added, buffer only sample. After” for “After”
as §2

[11] = molecular target: T3, human CRTh2; assay: flow cytometry on basophils and eosinophils of human PBMC; antibody at 5 and 0.5 ug/ml, labelled anti-mouse IgG [Cont.]

B1: humanized and engineered anti-CRTh2 antibody hu19A2.v12 (antibody, human IgG1, kappa, V domains shown)
VH: EVQLVESGGGLVQPGGSLRLSCAASGFTFSSYSMSWVRQAPGKGLEWVAYISNGGSTTDYPGTVEGRFTISRDNSKNTLYLQMNSLRAEDTAVYYCARHRTNWDFDYWGQGTLVTVSS
VL: DIQMTQSPSSLSASVGDRVTITCRASENIYWNLAWYQQKPGKAPKLVVYAATQLADGVPSRFSGSGSGTDYTLTISSLQPEDFATYYCQHFWITPWTFGQGTKVEIKR
notes: Human IgG1; whole antibody as used in flow cytometry; also called h19A2.v12
[1]
  binding result: binds

B2: h19A2.v46 Fab fragment (Fab, V domains shown)
VH: B1 VH with S33L, Y50R
VL: DIQMTQSPSSLSASVGDRVTITCRASENIYWNLAWYQQKPGKAPKLVVYAATQLADGVPSRFSGSGSGTDYTLTISSLQPEDFATYYCQHFWITPWTFGQGTKVEIK
notes: Fab fragment of the humanized IgG; also called h19A2.v46 (Fab fragment of IgG)
[2]
  Kd: 8.6 nM
[3]
  Kd: 6.4 nM

B3: h19A2.v60 Fab fragment (Fab, V domains shown)
VH: B1 VH with S33L, Y50R
VL: B2 VL with W31Y, V47L, V48I, D56E
notes: Fab fragment of the humanized IgG; also called h19A2.v60 (Fab fragment of IgG)
[2]
  Kd: 39 nM
[3]
  Kd: 56 nM

B4: humanized anti-CRTh2 antibody hu19A2.v1 (antibody, human IgG1, kappa, V domains shown)
VH: B1 VH with D59Y
VL: B1 VL with W31S
notes: also called h19A2.v1
[4]
  binding result: binds

B5: humanized affinity matured anti-CRTh2 antibody hu19A2.v52 (antibody, human IgG1, kappa, V domains shown)
VH: B1 VH with S33L, Y50R
VL: B1 VL with W31Y
notes: Human IgG1; whole antibody as used in flow cytometry and the cAMP assay; also called h19A2.v52; h19A2.52
[5]
  binding result: binds

B6: h19A2.v52 Fab fragment (Fab, V domains shown)
VH: B1 VH with S33L, Y50R
VL: B2 VL with W31Y
notes: Fab fragment of the humanized IgG; also called h19A2.v52 (Fab fragment of IgG); h19A2.52
[2]
  Kd: 21.3 nM
[3]
  Kd: 13.7 nM
[6]
  relative binding affinity for human versus cynomolgus CRTh2: ≤ 2 fold

B7: humanized affinity matured anti-CRTh2 antibody hu19A2.v46 (antibody, human IgG1, kappa, V domains shown)
VH: B1 VH with S33L, Y50R
VL: B1 VL
notes: Human IgG1; whole antibody as used in flow cytometry; also called h19A2.v46
[5]
  binding result: binds

B8: h19A2.v12 Fab fragment (Fab, V domains shown)
VH: B1 VH
VL: B2 VL
notes: Fab fragment of the humanized IgG, 125I-labelled in the radioligand assay; also called h19A2.v12 (Fab fragment of IgG); h19A2.12
[2]
  Kd: 152 nM
[3]
  Kd: 51 nM
[6]
  relative binding affinity for human versus cyno CRTh2: ≤ 3 fold

B9: murine anti-CRTh2 antibody 31A5 (antibody, mouse IgG2a, V domains shown)
VH: QVQLKESGPGLVAPSQSLSITCTVSGFSLTGYGVNWVRQPPGKGLEWLGMIWDDGTTDFDSALRSRLSISKDNSKSQVFLKMNSLQTDDTARYFCARGDYGYAMDYWGQGTSVTVSS
VL: DIQMTQSPASLSVSVGETVTITCRASVNIYSNLAWYQQRQGKSPQLLVYAATNLAEGVPSRFSGSGSGTQYSLKINSLQSEDFGSYYCQHFWVTPYTFGGGTKLEIK
notes: Mouse monoclonal (hybridoma antibody; heavy chain also recloned with mouse IgG2a Fc); also called mu31A5
[7]
  binding result: no binding (tested: 20 ug/ml)
[8]
  binding result: no binding (tested: 20 ug/ml)

B10: murine anti-CRTh2 antibody 19A2 (antibody, V domains shown)
VH: EVKLVESGGGLVQPGGSLKLSCAASGFTFSSYSMSWVRQTPEKRLEWVAYISNGGSTTYYPGTVEGRFTISRDNAKNTLFLQMSSLRSKDTAMYYCARHRTNWDFDYWGQGTTLTVSS
VL: B9 VL with V27E, R39K, L47V, N53Q, E56D, V93I, Y96W
notes: whole IgG in the Scatchard assay; also called mu19A2; Mab 19A2
[9]
  Kd: 2 nM
[10]
  Kd: 10.2 nM

B11: murine anti-CRTh2 antibody 3C12 (antibody, mouse IgG2a, V domains shown)
VH: QVQLQQSGADLVRPGTSVKVSCKASGYAFTNYLIDWVKQRPGQGLEWIGAIHPGSGRTHYNEKFKGKATLTADKSSSAAYMQISSLTSDDSAVFFCARSGGSSFDYYAMDYWGQGTSVTVSS
VL: DIQMTQSPSSLSASLGERVSLTCRASQEIGGYLSWLQQKPDGTFKRLIYAASTLDSGVPKRFSGSRSGSDYSLTISSLESEDFADYYCLQYANYPYTFGGGTKLEIK
notes: Mouse monoclonal (hybridoma antibody; heavy chain also recloned with mouse IgG2a Fc); also called mu3C12
[7]
  binding result: no binding (tested: 20 ug/ml)
[11]
  binding result: binds
[8]
  binding result: no binding (tested: 20 ug/ml)

B12: murine anti-CRTh2 antibody 8B1 (antibody, V domains shown)
VH: QVQLQQSGTGLVRPGTSVRVSCKASGYAFITYLIEWIKQRPGQGLEWIGVIHPGSGNSHYNEKFKGKATLTADTSSSTAYMQLSSLTSGDSAVYFCARSGSSSFDYYAMDFWGQGTSVTVSS
VL: B11 VL with G30S, L33F, F44I
notes: Mouse monoclonal, hybridoma antibody or recloned with mouse IgG2a Fc; whole IgG in the Scatchard assay; also called mu8B1; Mab 8B1
[9]
  Kd: 2.6 nM
